The assay has as its target T1, human GPC3 (human, UniProt P51654 25-563).
T1 construct: range 25-563; soluble analyte; also called soluble human GPC3; glypican 3
Briefly: SPR. In general terms: In SPR one partner is held on a chip, and binding of the other changes the refractive index at the surface.

T1 sequence (P51654 25-563 limits assumed): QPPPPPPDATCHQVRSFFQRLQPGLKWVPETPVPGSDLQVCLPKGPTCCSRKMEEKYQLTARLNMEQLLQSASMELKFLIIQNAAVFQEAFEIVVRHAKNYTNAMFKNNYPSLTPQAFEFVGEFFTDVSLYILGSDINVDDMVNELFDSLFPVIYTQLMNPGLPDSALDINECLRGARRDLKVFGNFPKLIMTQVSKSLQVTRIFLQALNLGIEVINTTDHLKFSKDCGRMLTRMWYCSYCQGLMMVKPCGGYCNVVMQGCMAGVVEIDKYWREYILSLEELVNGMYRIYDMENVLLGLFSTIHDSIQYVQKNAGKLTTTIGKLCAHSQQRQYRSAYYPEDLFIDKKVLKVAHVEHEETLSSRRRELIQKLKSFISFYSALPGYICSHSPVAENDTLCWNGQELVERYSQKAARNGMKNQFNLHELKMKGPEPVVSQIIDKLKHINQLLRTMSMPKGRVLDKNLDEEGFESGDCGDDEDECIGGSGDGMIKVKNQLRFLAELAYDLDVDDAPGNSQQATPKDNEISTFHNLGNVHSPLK

B1: GCH073-G1dh/none-Hi-Kn010G3/L0011-k0 (antibody, V domains shown)
VH: QVQLVQSGAEVKKPGASVTVSCKASGYTFTDYEMHWIRQPPGEGLEWIGAIDGPTPDTAYSQKFEGRVTLTADKSTSTAYMELSSLTSEDTAVYYCTRFYSYTYWGQGTLVTVSS
VL: DIVMTQSPLSLPVTPGEPASISCRSSQPLVHSNRNTYLHWYQQKPGQAPRLLIYKVSNRFSGVPDRFSGSGSGTDFTLKISRVEAEDVGVYYCGQGTQVPYTFGQGTKLEIKR
notes: one-arm
What is called Kd is the free concentration of one partner at which half of the binding sites on the other are occupied at equilibrium, for simple one-to-one binding. The low end stands for higher affinity, the high end for lower affinity. The molecule B1 came in with a Kd of 0.91 nM. This counts as sub-nanomolar.

B2: GCH100-G1dh/none-Hi-Kn010G3/L0011-k0 (antibody, V domains shown)
VH: QVQLVQSGAEVKKPGASVTVSCKASGYTFTDYEMHWVRQAPGEGLEWMGAIDGYTPDTAYSEKFKGRVTLTADKSTSTAYMELSSLTSEDTAVYYCTRFYSYTYWGQGTLVTVSS
VL: DIVMTQSPLSLPVTPGEPASISCRSSQPLVHSNRNTYLHWYQQKPGQAPRLLIYKVSNRFSGVPDRFSGSGSGTDFTLKISRVEAEDVGVYYCGQGTQVPYTFGQGTKLEIKR
notes: one-arm
For the molecule B2, the Kd is 3.81 nM. This Kd is about 4.2-fold higher than that of the molecule before.

B3: GCH098-G1dh/none-Hi-Kn010G3/L0011-k0 (antibody, V domains shown)
VH: QVQLVQSGAEVKKPGASVTVSCKASGYTFTDYEMHWVRQAPGEGLEWMGAIDGPTPDTAYSEKFKGRVTLTADKSTSTAYMELSSLTSEDTAVYYCTRFYSYTYWGQGTLVTVSS
VL: DIVMTQSPLSLPVTPGEPASISCRSSQPLVHSNRNTYLHWYQQKPGQAPRLLIYKVSNRFSGVPDRFSGSGSGTDFTLKISRVEAEDVGVYYCGQGTQVPYTFGQGTKLEIKR
notes: one-arm
Molecule B3 yielded a Kd of 0.802 nM.

B4: H0610-G1dh/none-Hi-Kn010G3/L0209-k0 (antibody, V domains shown)
VH: QVQLVQSGAEVKKPGASVKVSCKASGYTFTDYEMHWIRQPPGQGLEWIGAIDGKTPDTAYSQKFKGRVTLTADKSTSTAYMELSSLTSEDTAVYYCTRFYSYTYWGQGTLVTVSS
VL: DIVMTQSPLSLPVTPGEPASISCRSSQSPVHSNRNTYIHWYQQKPGQAPRLLIYKVSNRFSGVPDRFSGSGSGTDFTLKISRVEAEDVGVYYCYQGTQVPYTFGQGTKLEIKR
notes: one-arm
The molecule B4 returned a Kd of 1.12 nM.

B5: GCH094-G1dh/none-Hi-Kn010G3/L0000-k0 (antibody, V domains shown)
VH: QVQLVQSGAEVKKPGASVTVSCKASGYTFTDYEMHWVRQAPGEGLEWMGAIDGETPDTAYSEKFKGRVTLTADKSTSTAYMELSSLTSEDTAVYYCTRFYSYTYWGQGTLVTVSS
VL: DIVMTQSPLSLPVTPGEPASISCRSSQSLVHSNRNTYLHWYQQKPGQAPRLLIYKVSNRFSGVPDRFSGSGSGTDFTLKISRVEAEDVGVYYCGQGTQVPYTFGQGTKLEIKR
notes: one-arm
Molecule B5 showed a dissociation constant Kd of 5.89 nM.

B6: H0610-G1dh/none-Hi-Kn010G3/L0208-k0 (antibody, V domains shown)
VH: QVQLVQSGAEVKKPGASVKVSCKASGYTFTDYEMHWIRQPPGQGLEWIGAIDGKTPDTAYSQKFKGRVTLTADKSTSTAYMELSSLTSEDTAVYYCTRFYSYTYWGQGTLVTVSS
VL: DIVMTQSPLSLPVTPGEPASISCRSSQSPVHSNRNTYLHWYQQKPGQAPRLLIYKVSNRFWGVPDRFSGSGSGTDFTLKISRVEAEDVGVYYCYQGTQVPYTFGQGTKLEIKR
notes: one-arm
For the molecule B6, binding was characterised by a dissociation constant (Kd) of 0.53 nM.

B7: GCH094-G1dh/none-Hi-Kn010G3/L0201-k0 (antibody, V domains shown)
VH: QVQLVQSGAEVKKPGASVTVSCKASGYTFTDYEMHWVRQAPGEGLEWMGAIDGETPDTAYSEKFKGRVTLTADKSTSTAYMELSSLTSEDTAVYYCTRFYSYTYWGQGTLVTVSS
VL: DIVMTQSPLSLPVTPGEPASISCRSSQPPVHSNRNTYLHWYQQKPGQAPRLLIYKVSNRFSGVPDRFSGSGSGTDFTLKISRVEAEDVGVYYCGQGTQVPYTFGQGTKLEIKR
notes: one-arm
The molecule B7 registered a Kd of 1.17 nM.

B8: H0610-G1dh/none-Hi-Kn010G3/L0204-k0 (antibody, V domains shown)
VH: QVQLVQSGAEVKKPGASVKVSCKASGYTFTDYEMHWIRQPPGQGLEWIGAIDGKTPDTAYSQKFKGRVTLTADKSTSTAYMELSSLTSEDTAVYYCTRFYSYTYWGQGTLVTVSS
VL: DIVMTQSPLSLPVTPGEPASISCRSSQSPVHSNRNTYLHWYQQKPGQAPRLLIYKVSNRFRGVPDRFSGSGSGTDFTLKISRVEAEDVGVYYCGQGTQVPYTFGQGTKLEIKR
notes: one-arm
B8 returned a Kd of 0.727 nM. Against the preceding molecule, the Kd is about 1.6-fold lower.

B9: GCH073-G1dh/none-Hi-Kn010G3/L0201-k0 (antibody, V domains shown)
VH: QVQLVQSGAEVKKPGASVTVSCKASGYTFTDYEMHWIRQPPGEGLEWIGAIDGPTPDTAYSQKFEGRVTLTADKSTSTAYMELSSLTSEDTAVYYCTRFYSYTYWGQGTLVTVSS
VL: DIVMTQSPLSLPVTPGEPASISCRSSQPPVHSNRNTYLHWYQQKPGQAPRLLIYKVSNRFSGVPDRFSGSGSGTDFTLKISRVEAEDVGVYYCGQGTQVPYTFGQGTKLEIKR
notes: one-arm
Molecule B9 returned a Kd of 0.035 nM. Against the preceding molecule, the Kd is about 21-fold lower.

B10: GCH098-G1dh/none-Hi-Kn010G3/L0201-k0 (antibody, V domains shown)
VH: QVQLVQSGAEVKKPGASVTVSCKASGYTFTDYEMHWVRQAPGEGLEWMGAIDGPTPDTAYSEKFKGRVTLTADKSTSTAYMELSSLTSEDTAVYYCTRFYSYTYWGQGTLVTVSS
VL: DIVMTQSPLSLPVTPGEPASISCRSSQPPVHSNRNTYLHWYQQKPGQAPRLLIYKVSNRFSGVPDRFSGSGSGTDFTLKISRVEAEDVGVYYCGQGTQVPYTFGQGTKLEIKR
notes: one-arm
With B10, the affinity, expressed as Kd, was 0.111 nM.

B11: H0610-G1dh/none-Hi-Kn010G3/L0203-k0 (antibody, V domains shown)
VH: QVQLVQSGAEVKKPGASVKVSCKASGYTFTDYEMHWIRQPPGQGLEWIGAIDGKTPDTAYSQKFKGRVTLTADKSTSTAYMELSSLTSEDTAVYYCTRFYSYTYWGQGTLVTVSS
VL: DIVMTQSPLSLPVTPGEPASISCRSSQSPVHSNRNTYIHWYQQKPGQAPRLLIYKVSNRFSGVPDRFSGSGSGTDFTLKISRVEAEDVGVYYCGQGTQVPYTFGQGTKLEIKR
notes: one-arm
B11 returned a Kd of 2.11 nM. This Kd lies about 19-fold higher than the previous one.

B12: H0610-G1dh/none-Hi-Kn010G3/L0011-k0 (antibody, V domains shown)
VH: QVQLVQSGAEVKKPGASVKVSCKASGYTFTDYEMHWIRQPPGQGLEWIGAIDGKTPDTAYSQKFKGRVTLTADKSTSTAYMELSSLTSEDTAVYYCTRFYSYTYWGQGTLVTVSS
VL: DIVMTQSPLSLPVTPGEPASISCRSSQPLVHSNRNTYLHWYQQKPGQAPRLLIYKVSNRFSGVPDRFSGSGSGTDFTLKISRVEAEDVGVYYCGQGTQVPYTFGQGTKLEIKR
notes: one-arm
Take B12: binding was characterised by a dissociation constant (Kd) of 2.76 nM.

B13: H0610-G1dh/none-Hi-Kn010G3/L0206-k0 (antibody, V domains shown)
VH: QVQLVQSGAEVKKPGASVKVSCKASGYTFTDYEMHWIRQPPGQGLEWIGAIDGKTPDTAYSQKFKGRVTLTADKSTSTAYMELSSLTSEDTAVYYCTRFYSYTYWGQGTLVTVSS
VL: DIVMTQSPLSLPVTPGEPASISCRSSQSPVHSNRNTYLHWYQQKPGQAPRLLIYKVSNRFSGVPDRFSGSGSGTDFTLKISRVEAEDVGVYYCYQGTQVPYTFGQGTKLEIKR
notes: one-arm
In the case of B13, the Kd was 0.865 nM.

B14: GCH098-G1dh/none-Hi-Kn010G3/L0000-k0 (antibody, V domains shown)
VH: QVQLVQSGAEVKKPGASVTVSCKASGYTFTDYEMHWVRQAPGEGLEWMGAIDGPTPDTAYSEKFKGRVTLTADKSTSTAYMELSSLTSEDTAVYYCTRFYSYTYWGQGTLVTVSS
VL: DIVMTQSPLSLPVTPGEPASISCRSSQSLVHSNRNTYLHWYQQKPGQAPRLLIYKVSNRFSGVPDRFSGSGSGTDFTLKISRVEAEDVGVYYCGQGTQVPYTFGQGTKLEIKR
notes: one-arm
Regarding B14, binding was put at a Kd of 1.77 nM.

B15: GCH099-G1dh/none-Hi-Kn010G3/L0201-k0 (antibody, V domains shown)
VH: QVQLVQSGAEVKKPGASVTVSCKASGYTFTDYEMHWVRQAPGEGLEWMGAIDGWTPDTAYSEKFKGRVTLTADKSTSTAYMELSSLTSEDTAVYYCTRFYSYTYWGQGTLVTVSS
VL: DIVMTQSPLSLPVTPGEPASISCRSSQPPVHSNRNTYLHWYQQKPGQAPRLLIYKVSNRFSGVPDRFSGSGSGTDFTLKISRVEAEDVGVYYCGQGTQVPYTFGQGTKLEIKR
notes: one-arm
Turning to B15, the Kd is 1.29 nM.

B16: H0610-G1dh/none-Hi-Kn010G3/L0211-k0 (antibody, V domains shown)
VH: QVQLVQSGAEVKKPGASVKVSCKASGYTFTDYEMHWIRQPPGQGLEWIGAIDGKTPDTAYSQKFKGRVTLTADKSTSTAYMELSSLTSEDTAVYYCTRFYSYTYWGQGTLVTVSS
VL: DIVMTQSPLSLPVTPGEPASISCRSSQPPVHSNRNTYLHWYQQKPGQAPRLLIYKVSNRFSGVPDRFSGSGSGTDFTLKISRVEAEDVGVYYCYQGTQVPYTFGQGTKLEIKR
notes: one-arm
Turning to B16, the Kd came to 0.647 nM.

B17: H0610-G1dh/none-Hi-Kn010G3/L0201-k0 (antibody, V domains shown)
VH: QVQLVQSGAEVKKPGASVKVSCKASGYTFTDYEMHWIRQPPGQGLEWIGAIDGKTPDTAYSQKFKGRVTLTADKSTSTAYMELSSLTSEDTAVYYCTRFYSYTYWGQGTLVTVSS
VL: DIVMTQSPLSLPVTPGEPASISCRSSQPPVHSNRNTYLHWYQQKPGQAPRLLIYKVSNRFSGVPDRFSGSGSGTDFTLKISRVEAEDVGVYYCGQGTQVPYTFGQGTKLEIKR
notes: one-arm
Molecule B17 displayed a dissociation constant Kd of 1.13 nM.

B18: GCH099-G1dh/none-Hi-Kn010G3/L0011-k0 (antibody, V domains shown)
VH: QVQLVQSGAEVKKPGASVTVSCKASGYTFTDYEMHWVRQAPGEGLEWMGAIDGWTPDTAYSEKFKGRVTLTADKSTSTAYMELSSLTSEDTAVYYCTRFYSYTYWGQGTLVTVSS
VL: DIVMTQSPLSLPVTPGEPASISCRSSQPLVHSNRNTYLHWYQQKPGQAPRLLIYKVSNRFSGVPDRFSGSGSGTDFTLKISRVEAEDVGVYYCGQGTQVPYTFGQGTKLEIKR
notes: one-arm
In the case of B18, the Kd was found to be 2.78 nM.

B19: GCH100-G1dh/none-Hi-Kn010G3/L0000-k0 (antibody, V domains shown)
VH: QVQLVQSGAEVKKPGASVTVSCKASGYTFTDYEMHWVRQAPGEGLEWMGAIDGYTPDTAYSEKFKGRVTLTADKSTSTAYMELSSLTSEDTAVYYCTRFYSYTYWGQGTLVTVSS
VL: DIVMTQSPLSLPVTPGEPASISCRSSQSLVHSNRNTYLHWYQQKPGQAPRLLIYKVSNRFSGVPDRFSGSGSGTDFTLKISRVEAEDVGVYYCGQGTQVPYTFGQGTKLEIKR
notes: one-arm
Take B19: the Kd came to 5.39 nM. This Kd is about 1.9-fold higher than that of the molecule before.

B20: GCH099-G1dh/none-Hi-Kn010G3/L0000-k0 (antibody, V domains shown)
VH: QVQLVQSGAEVKKPGASVTVSCKASGYTFTDYEMHWVRQAPGEGLEWMGAIDGWTPDTAYSEKFKGRVTLTADKSTSTAYMELSSLTSEDTAVYYCTRFYSYTYWGQGTLVTVSS
VL: DIVMTQSPLSLPVTPGEPASISCRSSQSLVHSNRNTYLHWYQQKPGQAPRLLIYKVSNRFSGVPDRFSGSGSGTDFTLKISRVEAEDVGVYYCGQGTQVPYTFGQGTKLEIKR
notes: one-arm
In turn, B20 showed a Kd of 4.24 nM.

B21: GCH100-G1dh/none-Hi-Kn010G3/L0201-k0 (antibody, V domains shown)
VH: QVQLVQSGAEVKKPGASVTVSCKASGYTFTDYEMHWVRQAPGEGLEWMGAIDGYTPDTAYSEKFKGRVTLTADKSTSTAYMELSSLTSEDTAVYYCTRFYSYTYWGQGTLVTVSS
VL: DIVMTQSPLSLPVTPGEPASISCRSSQPPVHSNRNTYLHWYQQKPGQAPRLLIYKVSNRFSGVPDRFSGSGSGTDFTLKISRVEAEDVGVYYCGQGTQVPYTFGQGTKLEIKR
notes: one-arm
B21 returned a Kd of 1.37 nM. Compared with the last molecule, the Kd is about 3.1-fold lower.
